In patent US20230405146A1 (HARBOUR ANTIBODIES, published 2023):
Ends that are not written are not given here.

T1: CD34 peptide (region 191 aa-207aa of the extracellular domain of CD34) coupled to BSA (human, also: coupled to BSA, site not given here)
T1 construct: also called CD34 specific peptide
T1 peptide: LEQNKTSSCAEFKKDRG

B1: 3.2E3 (antibody, V domains shown)
VH: QVQLVESGGGVVQPGRSLRLSCVASGFTLSLNGMHWVRQAPGKGLEWVAVIWYDGSNRYYVDSVKGRFTISRDNSKNTLYLQMNSLRAEDTAVYYCARESFLGTFDYWGQGTLVTVSS
VL: DIQLTQSPSFLSASVGDRVTITCRASQGISSYLAWYQQKPGKAPKLLIYAASTLQSGVPSRFSGSGSGTEFTLTISSLQPEDFATYYCQQLNSYPYTFGQGTKLEIK
B2: 4.5c5 (antibody, V domains shown)
VH: EMQLLESGGGLVQPGGSLRLSCAASGFTFGHYAMTWVRQVPGKGLDWVSAISGGGTFTHYADSVKGRFTTSRDNSKNTLYLQMSSLRAEDTALYYCAKDQGYDYSWYYFDYWGQGTLVTVSS
VL: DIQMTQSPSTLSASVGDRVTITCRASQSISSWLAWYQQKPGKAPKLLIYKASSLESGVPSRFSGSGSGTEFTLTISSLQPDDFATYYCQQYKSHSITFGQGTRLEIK
notes: Anti-CD34 hybridoma clone from H2L2 mice
B3: 4.5 e5 (antibody, V domains shown)
VH: EMQLLESGGGLVQPGGSLRLSCAASGFTFGHYAMTWVRQVPGKGLDWVSAISGGGTFTHYADSVKGRFTTSRDNSKNTLYLQMSSLRAEDTALYYCAKDQGYDYSWYYFDYWGQGTLVTVSS
VL: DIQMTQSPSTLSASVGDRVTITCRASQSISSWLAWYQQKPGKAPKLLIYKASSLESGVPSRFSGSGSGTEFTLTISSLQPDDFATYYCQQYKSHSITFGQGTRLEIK
notes: as for B2
B4: L.1c7 (antibody, V domains shown)
VH: EMQLLESGGGLVQPGGSLRLSCAASGFTFGHFAMSWVRQVPGKGLDWVSAISGGGSFTYSADSVKGRFTTSRDNSKNTLYLQMSSLRAEDTALYYCAKDQGYDYSWYYFDFWGQGTLVTVSS
VL: DIQMTQSPSTLSASVGDRVTITCRASQSISSWLAWYQQRPGKAPKLLIYKASSLESGVPSRFSGRGSGTEFTLTISSLQPDDFATYYCQQYKSHSITFGQGTRLEIK
notes: as for B2
B5: 2.4c10 (antibody, V domains shown)
VH: QVQLVESGGGVVQPGRSLRLSCAASGFTFSNYGMHWVRQAPDKGLEWVAVIWYDGSKKYYADSVKGRFTISRDDSKNTLYLQMNSLRAEDTAVYYCARWGELRYDAFDIWGQGTMVTVSS
VL: not shown
notes: as for B2
B6: 2.6f11 (antibody, V domains shown)
VH: QVQLVESGGGVVQPGRSLRLSCAASGFTFSSYGMHWVRQAPGKGLEWVAVIWYDGSKKYYTDSVKGRFTISRDNSKNTLYLQMNSLRAEDTAVFYCARWGSGNFDSFDIWGQGTMVTVSS
VL: DIQMTQSPSTLSASVGDRVTITCRASQSISSWLAWYQQKPGKAPKLLISKASSLESGVPSRFSGSGSGTEFTLTISSLQPDDFATYYCQQYKNYWTFGQGTKVEIK
notes: as for B2

These binders were tested against T2, human Gpr56 on cells (primary blood cells; 32D-Gpr56 cell line) (human, UniProt Q9Y653 26-693) (assay: flow cytometry, 32D-Gpr56 cells, α-rat AF647 secondary; the dashed histogram is taken as the control).
T2 construct: whole, on cells; In the nanoparticle assays the cells were gated or isolated by CD34, not by Gpr56
T2 sequence (Q9Y653 26-693): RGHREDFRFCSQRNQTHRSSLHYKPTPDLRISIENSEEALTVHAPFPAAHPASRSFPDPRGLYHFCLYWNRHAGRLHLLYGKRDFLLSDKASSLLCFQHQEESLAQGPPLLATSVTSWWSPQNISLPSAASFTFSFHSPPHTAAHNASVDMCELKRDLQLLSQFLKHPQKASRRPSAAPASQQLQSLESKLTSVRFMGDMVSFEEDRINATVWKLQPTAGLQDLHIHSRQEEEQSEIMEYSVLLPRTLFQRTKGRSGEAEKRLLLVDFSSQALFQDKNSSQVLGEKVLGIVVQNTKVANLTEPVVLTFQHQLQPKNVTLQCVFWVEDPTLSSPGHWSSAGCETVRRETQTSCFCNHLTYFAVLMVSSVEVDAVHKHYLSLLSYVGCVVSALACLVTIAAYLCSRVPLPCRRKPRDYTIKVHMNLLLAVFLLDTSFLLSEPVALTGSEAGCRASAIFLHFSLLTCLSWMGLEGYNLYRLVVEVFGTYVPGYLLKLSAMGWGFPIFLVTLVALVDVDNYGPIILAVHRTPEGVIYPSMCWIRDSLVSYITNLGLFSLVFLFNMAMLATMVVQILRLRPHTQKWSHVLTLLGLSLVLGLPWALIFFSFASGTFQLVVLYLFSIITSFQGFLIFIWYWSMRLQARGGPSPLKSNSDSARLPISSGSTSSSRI

Question: Does B1 bind?
Answer: no binding (tested: 10 µg/ml)

Molecular target: T1, CD34 peptide (region 191 aa-207aa of …)
Test: not stated: column headed Affinity, with no unit, method or antigen form printed; table of the CD34-peptide-positive monoclonals

Question: How did the Affinity turn out when B2 was run?
Answer: 1.3e-09

Question: For B3, which Affinity is on record?
Answer: 8.2e-10

Question: Which Affinity does the source give for B4 here?
Answer: 3.9e-09

Question: Which Affinity does the source give for B5 here?
Answer: 3e-08

Question: With B6 as the binder, how does the Affinity read?
Answer: 2.1e-09
